Measured values from patent US20080242590A1, “New Method 706” (ASTRAZENECA AB, priority 2007, published 2008).

Columns and labels:
amyloid β 1-40 [1] = assay: Degradation of Aβ 1-40 in APPswe-tg mouse plasma pool (Example 28); assay type: biochemical; conditions: room temperature, 1 hour
Procedure: Mouse plasma collected from 9 animals was stored at −70° C. Plasma was thawed and pooled just before the experiment. Aβ 1-40 and 1-42 in plasma pool was degraded by human Fc-Nep or mouse Fc-Nep with corresponding vehicles (50 mM Tris-HCl, 150 mM NaCl pH 7.5). […] The enzymatic reaction was stopped by adding Phosphoramidone (10 μM final concentration).
After degradation, before concentration of amyloid β 1-40 in tg-mouse plasma pool was measured using ELISA kit (Biosource; KHB3481), the plasma samples were diluted 20 times in standard diluent buffer, according to manufacturers instructions.

human Aβ40 = assay: Human Aβ40 in plasma, time-response after single i.v. dose (Example 26); assay type: in vivo, APPSWE-tg mice; conditions: 25 mg/kg single i.v.
Text: (§1) The objective of this study was to evaluate the time-response relationship of the mouse version of the Fc-Nep (mFc-Nep, SEQ ID NO 14) in plasma of female APPSWE-tg mice and C57BL/6 mice after a single dose. The specific purpose is to find out how long the reducing effect of mFc-Nep on Aβ stays in the plasma, and to correlate the effect to the level of exposure of test compound in plasma. The γ-secretase inhibitor M-550426 is included as a positive compound.
(§2) 21-23 weeks old female APPSWE-tg mice and 24 weeks old female C57BL/6 mice (6 mice/group) received vehicle or mFc-Nep at 5 or 25 mg/kg as a single intravenous injection and Aβ40 was analysed at different time points after injection (between 1.5-336 hours, i.e., up to 2 weeks). M-550426 was administrated per orally at 300 μmol/kg 3 hours before termination. For both mouse models, APPSWE-tg and C57BL/6, a positive control and blank groups were included. The following groups were included for the APPSWE-tg mice: 25 mg/kg: 1.5, 72, 168 and 336 hours; 5 mg/kg): 336 hours (2 weeks). For C57BL/6 mice: 25 mg/kg: 168 and 336 hours; 5 mg/kg): 1.5, 168 and 336 hours. […]

Aβ 1-42 [2] = assay: Degradation of Aβ 1-42 in human plasma pool (Example 28); assay type: biochemical; conditions: room temperature, 1 hour
Procedure: (§3) Blood from twelve individuals (6 females and 6 males) were collected into pre-chilled heparin-plasma tubes at the healthcare centre (AstraZeneca) at three different time points. Plasma was prepared by centrifugation at 2500×g for 20 min at 4° C. Plasma samples were collected and transferred to pre-chilled polypropylene tubes and immediately frozen and stored at −70° C. prior to use. Plasma was thawed and pooled from 12 individuals just before the experiment. Aβ 1-40 and 1-42 in plasma pool was degraded by human Fc-Nep or mouse Fc-Nep with corresponding vehicles (50 mM Tris-HCl, 150 mM NaCl pH 7.5). The following final concentrations of the Fc-Nep constructs were used, 100, 32, 10, 3.2, 1, 0.3, 0.1 and […] and the degradation occurred at room temperature for 1 hour while shaking on an orbital shaker. The enzymatic reaction was stopped by adding Phosphoramidone (10 μM final concentration). Concentration of amyloid β 1-40 in human plasma pool was measured using ELISA kit (Biosource; KHB3481) according to the manufacturers instructions.
A final concentration of 4.7 mM EDTA was added to the tubes before the concentration of Aβ42 was analyzed using ELISA kit Innotest® β-Amyloid1-42 (Innogenetics, lot#177462, ref#80177) according to the manufacturers instructions.

[3] = Plasma exposure in APPSWE-tg mice (Example 26); assay type: in vivo; conditions: single intravenous injection of 25 mg/kg
Procedure: (§4) 21-23 weeks old female APPSWE-tg mice and 24 weeks old female C57BL/6 mice (6 mice/group) received vehicle or mFc-Nep at 5 or 25 mg/kg as a single intravenous injection and Aβ40 was analysed at different time points after injection (between 1.5-336 hours, i.e., up to 2 weeks). M-550426 was administrated per orally at 300 μmol/kg 3 hours before termination. For both mouse models, APPSWE-tg and C57BL/6, a positive control and blank groups were included. The following groups were included for the APPSWE-tg mice: 25 mg/kg: 1.5, 72, 168 and 336 hours; 5 mg/kg): 336 hours (2 weeks). For C57BL/6 mice: 25 mg/kg: 168 and 336 hours; 5 mg/kg): 1.5, 168 and 336 hours. […] Blood collection and plasma processing were basically as described in Example 25 The analysis of mouse Aβ40 levels in plasma of C57BL6 mice was as described in Example 25 The analysis of human Aβ40 and Aβ42 levels in plasma of APPSWE-tg mice was as described in Example 25 (as described in the last APP-tg study).

[4] = Observations of animal health (Example 26); assay type: in vivo, APPSWE-tg mice and C57BL/6 mice; conditions: 5 or 25 mg/kg single i.v., up to 336 hours
Procedure: as §4

amyloid β 1-40 [5] = assay: Degradation of Aβ 1-40 in human plasma pool (Example 28); assay type: biochemical; conditions: room temperature, 1 hour
Procedure: as §3

Aβ 1-42 [6] = assay: Degradation of Aβ 1-42 in APPswe-tg mouse plasma pool (Example 28); assay type: biochemical; conditions: room temperature, 1 hour
Procedure: Mouse plasma collected from 9 animals was stored at −70° C. Plasma was thawed and pooled just before the experiment. Aβ 1-40 and 1-42 in plasma pool was degraded by human Fc-Nep or mouse Fc-Nep with corresponding vehicles (50 mM Tris-HCl, 150 mM NaCl pH 7.5). The following final concentrations of the Fc-Nep constructs were used, 100, 32, 10, 3.2, 1, 0.3, 0.1 and […] and the degradation occurred at room temperature for 1 hour while shaking on an orbital shaker. The enzymatic reaction was stopped by adding Phosphoramidone (10 μM final concentration).
After degradation, a final concentration of 4.7 mM EDTA was added to the tg-mouse plasma tubes and the plasma samples were diluted 3 times in sample diluent, before the concentration of Aβ42 was analyzed using ELISA kit Innotest® β-Amyloid1-42 (Innogenetics, lot#177462, ref#80177) according to the manufacturers instructions. The highest concentration (100 μg/ml) of human Fc-Nep and mouse Fc-Nep degraded human plasma amyloid β 1-40 by 71% and 77%, respectively and Aβ 1-42 by 34% and 53%, respectively, as compared to plasma without Fc-Nep treatment.

mouse Aβ40 = assay: Mouse Aβ40 in plasma, time-response after single i.v. dose (Example 26); assay type: in vivo, C57BL/6 mice; conditions: 25 mg/kg single injection, 2 weeks (336 hours)
Text: as §1, §2

human Aβ42 = assay: Human Aβ42 in plasma, time-response after single i.v. dose (Example 26); assay type: in vivo, APPSWE-tg mice; conditions: 25 mg/kg single i.v.
[7] = Plasma exposure in C57BL/6 mice (Example 26); assay type: in vivo; conditions: 25 mg/kg single injection
Procedure: as §4

[8] = highest concentration 100 μg/ml

B1: mFc-Nep: mouse version of the Fc-Nep, SEQ ID NO 14 (protein, listed as Mus musculus)
chain: METDTLLLWVLLLWVPGSTGDVPRDCGCKPCICTVPPVSSVFIFPPKPKDVLTITLTPKVTCVVVAISKDDPEVQFSWFVDDVEVHTAQTQPREEQFASTFRSVSELPIMHQDWLNGKEFKCRVNSAAFPAPIEKTISKTKGRPKAPQVYTIPPPKEQMAKDKVSLTCMITDFFPEDITVEWQWNGQPAENYKNTQPIMNTNGSYFVYSKLNVQKSNWEAGNTFTCSVLHEGLHNHHTEKSLSHSPGKYDDGICKSSDCIKSAARLIQNMDASVEPCTDFFKYACGGWLKRNVIPETSSRYSNFDILRDELEVILKDVLQEPKTEDIVAVQKAKTLYRSCINESAIDSRGGQPLLKLLPDIYGWPVASDNWDQTYGTSWTAEKSIAQLNSKYGKKVLINFFVGTDDKNSTQHIIHFDQPRLGLPSRDYYECTGIYKEACTAYVDFMISVARLIRQEQSLPIDENQLSLEMNKVMELEKEIANATTKPEDRNDPMLLYNKMTLAKLQNNFSLEVNGKSFSWSNFTNEIMSTVNINIQNEEEVVVYAPEYLTKLKPILTKYSPRDLQNLMSWRFIMDLVSSLSRNYKESRNAFRKALYGTTSETATWRRCANYVNGNMENAVGRLYVEAAFAGESKHVVEDLIAQIREVFIQTLDDLTWMDAETKKKAEEKALAIKERIGYPDDIISNENKLNNEYLELNYREDEYFENIIQNLKFSQSKQLKKLREKVDKDEWISGAAVVNAFYSSGRNQIVFPAGILQPPFFSAQQSNSLNYGGIGMVIGHEITHGFDDNGRNFNKDGDLVDWWTQQSANNFKDQSQCMVYQYGNFSWDLAGGQHLNGINTLGENIADNGGIGQAYRAYQNYVKKNGEEKLLPGLDLNHKQLFFLNFAQVWCGTYRPEYAVNSIKTDVHSPGNFRIIGTLQNSAEFADAFHCRKNSYMNPERKCRVW
- Degradation of amyloid β 1-40 compared to plasma without treatment (amyloid β 1-40 [1]; [8]): 77%
- EC50 (amyloid β 1-40 [1]): 340 nM
- Aβ40 levels compared to vehicle (human Aβ40; 1.5 hours): 91%
- Aβ40 levels compared to vehicle (human Aβ40; two weeks (336 hours)): 58%
- Degradation of Aβ 1-42 compared to plasma without treatment (Aβ 1-42 [2]; [8]): 19%
- EC50 (Aβ 1-42 [2]): 180 nM
- Plasma exposure ([3]; 1.5 hours): 299 µg/mL
- Plasma exposure ([3]; 336 hours): 60 µg/mL
- Observations of the animal health [4]: no overt adverse effects
- Degradation of amyloid β 1-40 compared to plasma without treatment (amyloid β 1-40 [5]; [8]): 71%
- EC50 (amyloid β 1-40 [5]): 400 nM
- Degradation of Aβ 1-42 compared to plasma without treatment (Aβ 1-42 [6]; [8]): 53%
- EC50 (Aβ 1-42 [6]): 820 nM
- Reduction of mouse Aβ40 levels in plasma compared to vehicle (mouse Aβ40): 73%
- Aβ42 levels compared to vehicle (human Aβ42; 1.5 hours): 87%
- Aβ42 levels compared to vehicle (human Aβ42; two weeks (336 hours)): 44%
- plasma half-life [7]: long
- Plasma exposure ([7]; 336 hours): 48 µg/mL
